Measured values as given in patent publication US7407783B2, “Fructosylamine oxidase” (priority 2002, dated 2008).
“Also recorded” adds a separate entry of the source.

Columns and labels:
[1] = biological target: FAO-Q1 (Fusarium proliferatum, UniProt A0A1L7VP54); test: Substrate specificity of FAO-Q1 (FAO activity, rate method, H2O2 colorimetry); format: biochemical
Procedure: (§1) Titration of enzyme can be performed by a method known in the art (e.g., kinetic method), for example, that described in Example 1 (3). In this method, hydrogen peroxide generated by the reaction of an FAO with a glycated amino acid or peptide is measured on the basis of absorbance (505 nm) of quinone pigment produced in the presence of hydrogen peroxide. The amount (μmole) of hydrogen peroxide generated per minute is calculated on the basis of molar absorptivity (5.16×10^3 M^−1 cm^−1) of quinone pigment and the resultant numerical value is taken as a unit (U) of enzyme activity.
(§2) FAO activity of the crude enzyme solution was determined by the aforementioned rate method. The time-course of generation of hydrogen peroxide in the reaction mixture below was measured by a colorimetric method, and FAO activity was evaluated.
A mixture (total 3 ml) except for the enzyme solution was equilibrated at 30° C. After adding the enzyme solution, the time-course of absorbance at 505 nm was measured. The amount (μmole) of hydrogen peroxide generated per minute was calculated on the basis of molar absorptivity (5.16×10^3 M^−1 cm^−1) of quinone pigment produced, and the resultant numerical value was taken as a unit(U) of enzyme activity. […]
The substrate specificity of the enzymes (FAO-Q1, FAO-Q2) contained in 2 fractions separated in (1), 3) above was determined. […]

[2] = tested on: FAO-Q2; test: Substrate specificity of FAO-Q2 (FAO activity, rate method, H2O2 colorimetry); format: biochemical, Fusarium proliferatum; settings: for Relative activity (%) FAO-Q2: activity of FAO-Q2 on the substrate, FV = 100
Procedure: as §1, §2
(§3) A mixture (total 3 ml) except for the enzyme solution was equilibrated at 30° C. After adding the enzyme solution, the time-course of absorbance at 505 nm was measured. The amount (μmole) of hydrogen peroxide generated per minute was calculated on the basis of molar absorptivity (5.16×10^3 M^−1 cm^−1) of quinone pigment produced, and the resultant numerical value was taken as a unit(U) of enzyme activity. As a result, a strain having FAO was obtained.
The substrate specificity of the enzymes (FAO-Q1, FAO-Q2) contained in 2 fractions separated in (1), 3) above was determined. The FAO activity was measured using the respective two fractions as an enzyme solution according to the method described in Example 1(3). As a substrate, FV, FVH, FVHL, FVL, FVLS and FZL were used.

[3] = tested on: CC(C)[C@H](NCC1(O)OC[C@@H](O)[C@@H](O)[C@@H]1O)C(=O)O; test: cells, lysate or membranes named; settings: other: substrate FV or FZL; 30.0 °C
[4] = tested on: O=C(N[C@@H](CCCCNCC1(O)OC[C@@H](O)[C@@H](O)[C@@H]1O)C(=O)O)OCc1ccccc1; test: cells, lysate or membranes named; settings: other: substrate FV or FZL; 30.0 °C
Excerpt: Michaelis constant for respective substrates can be determined by measuring the initial reaction rate in the process for determination of titer as described above while keeping the conditions regarding enzyme concentration, pH, temperature, and the like constant and changing only the concentration of substrate.

[5] = Determination of optimum pH of the enzyme reaction; format: biochemical, Fusarium proliferatum; settings: pH 3.5-10.0 tested, at 30° C.
Procedure: Enzyme reaction was conducted under different pH conditions between 3.5 and 10.0 according to the method for determination of activity as described above.
The buffers used were 100 mM acetate buffer at pH range of 3.5-6.0, 100 mM potassium phosphate buffer at pH range of 6.0-8.0, 100 mM Tris-HCl buffer (pH range of 7.0-9.0) and 100 mM glycin-NaOH buffer at pH range of 9.0-10.0.

[6] = Determination of optimum temperature for stability of enzyme; format: physicochemical, Fusarium proliferatum; settings: incubated in 0.1 M Tris-HCl buffer (pH 8.0) at 30-65° C. for 10 minutes
Procedure: Temperature conditions for the enzyme were determined by incubating FAO-Q1 or FAO-Q2 in 0.1 M Tris-HCl buffer (pH 8.0) at a temperature between 30 and 65° C. for 10 minutes, and measuring the activity under normal conditions.

[7] = FAO activity of Resource Q fractions using FV as a substrate; format: biochemical, Fusarium proliferatum; settings: Resource Q fraction
Procedure: as §2, §3
The ammonium sulfate fraction after dialysis was subjected to chromatography under the following conditions.
Measurement of activity was performed in a similar manner to that described in Example 1 (3). FAOs contained in these fractions are herein referred to as “FAO-Q1” and “FAO-Q2”.

O=C(N[C@@H](CCCCNCC1(O)OC[C@@H](O)[C@@H](O)[C@@H]1O)C(=O)O)OCc1ccccc1 (stereo partly shown) [FZL]
Activity of FAO-Q1 on the substrate (in words) [1]: almost equally active; also recorded: almost the same activity | Relative activity (%) FAO-Q1 ([1]; activity of FAO-Q1 on the substrate, FV = 100): 108% | Activity of FAO-Q2 on the substrate (in words) [2]: inactive and not

FAO-Q1 (Fusarium proliferatum ET1)
Km [3]: 620 µM | Km [4]: 560 µM

fructosyl valine-leucine-serine (VLS) [FVLS]
Relative activity (%) FAO-Q2 [2]: 3.3%

fructosyl valine-histidine-leucine (VHL) [FVHL]
Activity of FAO-Q2 on the substrate (in words) [2]: active | Relative activity (%) FAO-Q2 [2]: 0.6%

B1: FAO-Q1: fructosylamine oxidase from Fusarium proliferatum GL2-1, Resource Q fraction Q1; amino acid sequence SEQ ID NO: 4 (protein, listed as Fusarium proliferatum)
chain: MAGPPSSILIVGSGVFGLGTAWALAKRSHFSNTSITVVDDCAGQFPPEDAASVDSSRIVRADYSDPYYAALAAEAQKEWRKQGDHEVGGQGRYSESGFVLCASETPEDFKLKKSGMDYTKESAKNVELIAKETGLPVDKIQKLESTKALQEFLGTDGYPGDWGYLNGNSGWADAGEGMKWLYKQAQATGRIHFVNGKVTELVTEGDRVIGAKLSDSKILKADVVMVAAGAWSGSLVDLRGRTEATGHAVAYMDITPEEQKRLDNFPVVLNLSTGLFLIPPRNNVLKAARHTFGYINPVKINNALPPSPNDKREPFIASQPYTSRNDSSNPLTVEADKDLRRALTDLCPIRGLETRPWKEARICWYSDTRDGEWLIDYHPGWKGLFVATGDSGHGFKFLPNLGEKIVDVMQGQGGKLGEKWRWKEIQNDGVGRETNGVYTGLVTEDGSRGGRPLVLCDELEKGRALIGNTKAKL
Optimum pH for enzyme reaction [5]: about 7.5 | Optimum pH for enzyme reaction ([5]; listed as FAO-O 1): 7.5 | Optimum temperature for stability of enzyme [6]: 30-40 °C | specific activity(U/mg) [7]: 0.3 U/mg

B2: FAO-Q2: fructosylamine oxidase from Fusarium proliferatum GL2-1, Resource Q fraction Q2; amino acid sequence SEQ ID NO: 6 (protein, listed as Fusarium proliferatum)
chain: MARTVAPLNKDSGILIVGGGTWGCSTALHLARRGYTNVTVLDVNRIPSPISAGHDVNKLSNRLGTSDSKGDDEDSIWKALTYAAAQGWLHDPIFQPFCHNTGAVMAGSTPKSIKQLVEDEIGDDIDQYTPLNTAEDFRRTMPERILTGDFLGWKGFYKPRGSGWVHARKAMKAAFEESQRLGVKFITGSPEGKVESLVFEAGDVKGAKTADGKEHRADRTILSAGASAEFSLDFENQIRPTAWTLGHIQMTAEETKLYKELPPLFNINQGFFMEPDEDLHQLKMCDEHPGYCNWVDKPGSKYPQSIPFAKYQVPIEAERRMKQFLKDIMPQLADRPLVHARICWCADTQDRMFLITYHPRHPSLVIASGDCGTGYKHITSIGKFISDCMEGTLEERFAKFWRWRPEKFTEFWGKDPLDRFGADDKIMDLPKSDAEGWTDIQNDK
Optimum pH for enzyme reaction [5]: about 7.0 | Optimum pH for enzyme reaction ([5]; listed as FAO-O2): 7 | Optimum temperature for stability of enzyme [6]: 30-40 °C | specific activity(U/mg) [7]: 0.067 U/mg
